Data published in patent publication US20230009539A1 (CLEVELAND CLINIC FOUNDATION, published 2023).

Experiments:
[1] = molecular target: T1, FLAG-hDcp2 (human, UniProt Q8IU60 1-420); assay: co-immunoprecipitation with anti-FLAG from transfected HeLa cells, HA blot
T1 construct: also called FLAG-tagged Dcp2; not shown: FLAG tag

[2] = molecular target: T2, Dcp1 (endogenous, HeLa cells) (human (HeLa cells), UniProt Q9NPI6 1-582); assay: in situ proximity ligation assay with anti-Act1 and anti-Dcp1, endogenous proteins in HeLa cells, untreated or IL-17
T2 construct: its constructs and phospho-antibody are Dcp1a; also called Dcp1 decapping enzyme; Dcp1a
T2 sequence (looked up): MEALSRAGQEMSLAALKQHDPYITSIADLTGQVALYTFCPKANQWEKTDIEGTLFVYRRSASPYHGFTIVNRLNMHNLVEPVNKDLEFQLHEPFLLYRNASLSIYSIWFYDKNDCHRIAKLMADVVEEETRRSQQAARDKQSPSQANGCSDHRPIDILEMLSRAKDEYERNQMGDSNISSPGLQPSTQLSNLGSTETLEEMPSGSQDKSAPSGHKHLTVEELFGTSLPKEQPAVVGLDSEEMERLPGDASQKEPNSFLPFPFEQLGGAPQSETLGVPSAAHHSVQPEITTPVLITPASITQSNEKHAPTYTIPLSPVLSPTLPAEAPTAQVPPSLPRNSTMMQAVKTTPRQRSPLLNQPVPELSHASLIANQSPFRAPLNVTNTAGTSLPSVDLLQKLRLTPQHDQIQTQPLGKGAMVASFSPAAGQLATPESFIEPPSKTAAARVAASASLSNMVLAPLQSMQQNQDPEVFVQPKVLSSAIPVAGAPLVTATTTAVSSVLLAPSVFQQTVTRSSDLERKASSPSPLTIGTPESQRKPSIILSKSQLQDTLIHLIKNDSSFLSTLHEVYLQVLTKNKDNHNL

[3] = molecular target: T3, IKKi (endogenous, HeLa cells) (human (HeLa cells), UniProt Q14164 1-716); assay: anti-Act1 immunoprecipitation from untreated and IL-17-treated HeLa cells (FIG. 4D)
T3 sequence (looked up): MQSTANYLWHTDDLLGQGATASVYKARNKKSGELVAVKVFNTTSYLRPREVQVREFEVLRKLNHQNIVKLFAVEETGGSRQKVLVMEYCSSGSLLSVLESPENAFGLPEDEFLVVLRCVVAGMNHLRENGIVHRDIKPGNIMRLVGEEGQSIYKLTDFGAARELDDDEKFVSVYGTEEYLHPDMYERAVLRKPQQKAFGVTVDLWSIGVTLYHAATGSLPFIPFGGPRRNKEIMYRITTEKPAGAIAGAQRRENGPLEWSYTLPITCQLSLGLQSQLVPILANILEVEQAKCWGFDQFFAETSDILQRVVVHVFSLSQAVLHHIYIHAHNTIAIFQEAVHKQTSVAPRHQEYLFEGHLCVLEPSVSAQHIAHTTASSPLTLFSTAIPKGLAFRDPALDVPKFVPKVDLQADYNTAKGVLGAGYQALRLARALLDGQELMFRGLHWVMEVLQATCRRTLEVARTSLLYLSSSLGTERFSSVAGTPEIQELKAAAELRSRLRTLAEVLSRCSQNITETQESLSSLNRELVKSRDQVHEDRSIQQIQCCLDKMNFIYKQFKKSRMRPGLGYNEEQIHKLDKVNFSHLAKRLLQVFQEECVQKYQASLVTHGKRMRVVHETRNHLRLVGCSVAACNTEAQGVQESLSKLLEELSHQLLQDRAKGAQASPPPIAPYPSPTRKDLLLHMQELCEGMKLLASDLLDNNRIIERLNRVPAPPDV
Method: (§1) Immunoblot, immunoprecipitation and nuclear fractionation: Cell were harvested and lysed on ice in a lysis buffer containing 0.5% Triton X-100, 20 mM Hepes pH 7.4, 150 mM NaCl, 12.5 mM-glycerophosphate, 1.5 mM MgCl2, 10 mM NaF, 2 mM dithiothreitol, 1 mM sodium orthovanadate, 2 mM EGTA, […], and 1 mM phenylmethylsulfonyl fluoride for 20 minutes, followed by centrifuging at 12,000 rpm for 15 minutes to extract clear lysates. For immunoprecipitation, cell lysates were incubated with 1 μg of antibody and A-sepharose beads at 4 degree overnight. After incubation, the beads were washed four times with lysis buffer and the precipitates were eluted with 2× sample buffer. Elutes and whole cell extracts were resolved on SDS-PAGE followed by immunobloting with antibodies. Nuclear fractionation was performed using NUCLEI EZ PREP kit purchased from Sigma in accordance with the manufacturer's instruction. Nuclear pellets were suspended in 30p1 of nuclear extraction buffer (20 mM HEPES, 400 mM NaCl, 1 mM EDTA, 1 mM EGTA in water, pH 7.9) containing freshly prepared 1 mM DTT and protease inhibitor cocktail. After 1.5 h incubation on ice bath with intermittent vortexing, extracts were centrifuged and supernatant was collected for immunoprecipitation.

[4] = molecular target: T4, TBK1 (endogenous, HeLa cells) (human (HeLa cells), UniProt Q9UHD2 1-729); assay: as above
T4 sequence (looked up): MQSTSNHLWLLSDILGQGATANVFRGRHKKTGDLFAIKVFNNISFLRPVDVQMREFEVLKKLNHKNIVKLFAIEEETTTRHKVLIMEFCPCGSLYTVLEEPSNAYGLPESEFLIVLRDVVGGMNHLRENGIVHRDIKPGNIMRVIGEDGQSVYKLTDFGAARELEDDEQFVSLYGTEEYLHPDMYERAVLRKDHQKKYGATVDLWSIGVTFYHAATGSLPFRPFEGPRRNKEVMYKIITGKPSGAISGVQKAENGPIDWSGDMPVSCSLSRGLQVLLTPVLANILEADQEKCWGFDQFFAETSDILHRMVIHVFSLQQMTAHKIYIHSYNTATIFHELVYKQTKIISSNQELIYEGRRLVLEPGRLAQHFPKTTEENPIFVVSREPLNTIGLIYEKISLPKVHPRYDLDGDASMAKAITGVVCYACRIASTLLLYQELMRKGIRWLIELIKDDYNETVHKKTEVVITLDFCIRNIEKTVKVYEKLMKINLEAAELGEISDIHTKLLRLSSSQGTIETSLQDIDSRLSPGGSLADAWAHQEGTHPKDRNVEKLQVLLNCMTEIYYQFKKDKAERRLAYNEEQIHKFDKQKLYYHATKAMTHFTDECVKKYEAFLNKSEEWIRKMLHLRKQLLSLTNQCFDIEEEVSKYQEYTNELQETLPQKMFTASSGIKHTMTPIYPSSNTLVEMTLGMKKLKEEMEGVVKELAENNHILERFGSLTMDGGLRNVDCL
Method: as §1

[5] = molecular target: T5, FLAG-hIRAK1 (human, UniProt P51617 1-712); assay: in situ proximity ligation assay (anti-Flag and anti-HA) in HeLa cells co-transfected with IRAK1-FLAG and Act1-HA (negative control)
T5 construct: Negative control of the PLA; also called IRAK1-Flag; not shown: FLAG tag
T5 sequence (P51617 whole entry): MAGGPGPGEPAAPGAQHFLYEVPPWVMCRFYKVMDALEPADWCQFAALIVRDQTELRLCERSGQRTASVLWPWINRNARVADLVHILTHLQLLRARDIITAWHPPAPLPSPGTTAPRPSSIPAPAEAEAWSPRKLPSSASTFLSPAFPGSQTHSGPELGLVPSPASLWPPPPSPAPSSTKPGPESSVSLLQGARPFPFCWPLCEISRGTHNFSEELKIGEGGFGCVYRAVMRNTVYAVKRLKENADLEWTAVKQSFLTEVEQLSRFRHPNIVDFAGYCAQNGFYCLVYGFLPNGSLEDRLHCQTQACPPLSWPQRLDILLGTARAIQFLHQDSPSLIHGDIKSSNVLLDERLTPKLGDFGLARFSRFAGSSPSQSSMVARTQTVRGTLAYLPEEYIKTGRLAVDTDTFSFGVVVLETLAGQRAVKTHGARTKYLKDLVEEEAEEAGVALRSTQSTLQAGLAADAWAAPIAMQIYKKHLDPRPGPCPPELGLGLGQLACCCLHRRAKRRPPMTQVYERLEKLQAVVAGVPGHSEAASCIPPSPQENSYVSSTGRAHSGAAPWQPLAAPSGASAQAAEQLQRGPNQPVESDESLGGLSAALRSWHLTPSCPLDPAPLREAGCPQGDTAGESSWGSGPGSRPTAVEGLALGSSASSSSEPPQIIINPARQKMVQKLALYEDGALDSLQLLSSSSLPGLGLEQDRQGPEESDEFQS

[6] = molecular target: T6, FLAG-hDcp1a (human, UniProt Q9NPI6 1-582); assay: in situ proximity ligation assay (anti-Flag and anti-HA) in HeLa cells co-transfected with Dcp1-FLAG and Act1-HA
T6 construct: also called Dcp1-Flag; FLAG-tagged Dcp1; not shown: FLAG tag
T6 sequence (looked up): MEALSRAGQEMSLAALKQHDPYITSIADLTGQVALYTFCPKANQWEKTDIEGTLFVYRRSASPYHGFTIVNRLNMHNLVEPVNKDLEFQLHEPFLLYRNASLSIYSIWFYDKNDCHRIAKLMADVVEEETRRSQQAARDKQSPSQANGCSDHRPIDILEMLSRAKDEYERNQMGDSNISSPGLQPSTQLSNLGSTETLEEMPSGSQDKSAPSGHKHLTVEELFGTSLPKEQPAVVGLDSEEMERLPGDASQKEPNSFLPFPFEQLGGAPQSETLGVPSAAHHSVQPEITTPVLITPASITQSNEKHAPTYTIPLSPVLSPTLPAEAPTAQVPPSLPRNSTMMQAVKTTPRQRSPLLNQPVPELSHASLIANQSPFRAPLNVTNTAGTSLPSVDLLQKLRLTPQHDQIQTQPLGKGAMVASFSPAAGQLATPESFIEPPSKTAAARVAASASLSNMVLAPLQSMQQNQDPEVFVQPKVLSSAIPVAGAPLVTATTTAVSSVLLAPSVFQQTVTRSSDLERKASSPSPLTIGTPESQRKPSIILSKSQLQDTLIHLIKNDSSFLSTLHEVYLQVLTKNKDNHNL

B1: HA-TBK1 (enzyme, not shown: small tags and cut ends)
chain: MQSTSNHLWLLSDILGQGATANVFRGRHKKTGDLFAIKVFNNISFLRPVDVQMREFEVLKKLNHKNIVKLFAIEEETTTRHKVLIMEFCPCGSLYTVLEEPSNAYGLPESEFLIVLRDVVGGMNHLRENGIVHRDIKPGNIMRVIGEDGQSVYKLTDFGAARELEDDEQFVSLYGTEEYLHPDMYERAVLRKDHQKKYGATVDLWSIGVTFYHAATGSLPFRPFEGPRRNKEVMYKIITGKPSGAISGVQKAENGPIDWSGDMPVSCSLSRGLQVLLTPVLANILEADQEKCWGFDQFFAETSDILHRMVIHVFSLQQMTAHKIYIHSYNTATIFHELVYKQTKIISSNQELIYEGRRLVLEPGRLAQHFPKTTEENPIFVVSREPLNTIGLIYEKISLPKVHPRYDLDGDASMAKAITGVVCYACRIASTLLLYQELMRKGIRWLIELIKDDYNETVHKKTEVVITLDFCIRNIEKTVKVYEKLMKINLEAAELGEISDIHTKLLRLSSSQGTIETSLQDIDSRLSPGGSLADAWAHQEGTHPKDRNVEKLQVLLNCMTEIYYQFKKDKAERRLAYNEEQIHKFDKQKLYYHATKAMTHFTDECVKKYEAFLNKSEEWIRKMLHLRKQLLSLTNQCFDIEEEVSKYQEYTNELQETLPQKMFTASSGIKHTMTPIYPSSNTLVEMTLGMKKLKEEMEGVVKELAENNHILERFGSLTMDGGLRNVDCL
notes: also called HA-tagged TBK1
B1: no binding [1].

B2: Act1 (endogenous, HeLa cells) (other, human (HeLa cells), UniProt O43734 1-574, looked up)
chain: MPPQLQETRMNRSIPVEVDESEPYPSQLLKPIPEYSPEEESEPPAPNIRNMAPNSLSAPTMLHNSSGDFSQAHSTLKLANHQRPVSRQVTCLRTQVLEDSEDSFCRRHPGLGKAFPSGCSAVSEPASESVVGALPAEHQFSFMEKRNQWLVSQLSAASPDTGHDSDKSDQSLPNASADSLGGSQEMVQRPQPHRNRAGLDLPTIDTGYDSQPQDVLGIRQLERPLPLTSVCYPQDLPRPLRSREFPQFEPQRYPACAQMLPPNLSPHAPWNYHYHCPGSPDHQVPYGHDYPRAAYQQVIQPALPGQPLPGASVRGLHPVQKVILNYPSPWDHEERPAQRDCSFPGLPRHQDQPHHQPPNRAGAPGESLECPAELRPQVPQPPSPAAVPRPPSNPPARGTLKTSNLPEELRKVFITYSMDTAMEVVKFVNFLLVNGFQTAIDIFEDRIRGIDIIKWMERYLRDKTVMIIVAISPKYKQDVEGAESQLDEDEHGLHTKYIHRMMQIEFIKQGSMNFRFIPVLFPNAKKEHVPTWLQNTHVYSWPKNKKNILLRLLREEEYVAPPRGPLPTLQVVPL
notes: Endogenous protein in cells or cell lysate; also called CIKS; endogenous Act1
B2: binds [2]; binds [3]; binds [4].

B3: HA-hAct1 (other, human, UniProt O43734 1-574, looked up)
chain: MPPQLQETRMNRSIPVEVDESEPYPSQLLKPIPEYSPEEESEPPAPNIRNMAPNSLSAPTMLHNSSGDFSQAHSTLKLANHQRPVSRQVTCLRTQVLEDSEDSFCRRHPGLGKAFPSGCSAVSEPASESVVGALPAEHQFSFMEKRNQWLVSQLSAASPDTGHDSDKSDQSLPNASADSLGGSQEMVQRPQPHRNRAGLDLPTIDTGYDSQPQDVLGIRQLERPLPLTSVCYPQDLPRPLRSREFPQFEPQRYPACAQMLPPNLSPHAPWNYHYHCPGSPDHQVPYGHDYPRAAYQQVIQPALPGQPLPGASVRGLHPVQKVILNYPSPWDHEERPAQRDCSFPGLPRHQDQPHHQPPNRAGAPGESLECPAELRPQVPQPPSPAAVPRPPSNPPARGTLKTSNLPEELRKVFITYSMDTAMEVVKFVNFLLVNGFQTAIDIFEDRIRGIDIIKWMERYLRDKTVMIIVAISPKYKQDVEGAESQLDEDEHGLHTKYIHRMMQIEFIKQGSMNFRFIPVLFPNAKKEHVPTWLQNTHVYSWPKNKKNILLRLLREEEYVAPPRGPLPTLQVVPL
notes: Printed as HA-hAct1 in the constructs and Act1-HA in the legends; also called Act1-HA; not shown: HA tag
B3: no binding [5]; binds [6].
